From patent US20220363757A1 (SYMPHOGEN A S, published 2022)

T1: human LAG-3 domain 1-2 Fc fusion, point mutation #34 A87S (human, UniProt P18627 23-266)
T1 construct: not shown: human IgG1 Fc, AA P101-K330
T1 sequence: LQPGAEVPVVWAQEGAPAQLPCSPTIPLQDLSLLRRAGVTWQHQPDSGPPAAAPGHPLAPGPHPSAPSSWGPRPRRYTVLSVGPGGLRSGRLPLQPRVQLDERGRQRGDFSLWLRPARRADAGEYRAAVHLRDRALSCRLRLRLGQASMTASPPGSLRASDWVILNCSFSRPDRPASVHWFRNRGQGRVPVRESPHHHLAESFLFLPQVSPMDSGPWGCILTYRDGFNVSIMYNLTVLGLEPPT

T2: human LAG-3 domain 1-2 Fc fusion, point mutation #29 P82A (human, UniProt P18627 23-266)
T2 construct: not shown: human IgG1 Fc, AA P101-K330
T2 sequence: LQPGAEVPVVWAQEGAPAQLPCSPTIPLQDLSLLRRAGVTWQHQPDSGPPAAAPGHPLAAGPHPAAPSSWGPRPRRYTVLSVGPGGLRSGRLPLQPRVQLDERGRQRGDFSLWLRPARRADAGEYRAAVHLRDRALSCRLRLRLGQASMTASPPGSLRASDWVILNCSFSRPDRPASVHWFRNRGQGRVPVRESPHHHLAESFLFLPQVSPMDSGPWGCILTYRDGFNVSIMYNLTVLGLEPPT

T3: human LAG-3 domain 1-2 Fc fusion, point mutation #14 T62A (human, UniProt P18627 23-266)
T3 construct: not shown: human IgG1 Fc, AA P101-K330
T3 sequence: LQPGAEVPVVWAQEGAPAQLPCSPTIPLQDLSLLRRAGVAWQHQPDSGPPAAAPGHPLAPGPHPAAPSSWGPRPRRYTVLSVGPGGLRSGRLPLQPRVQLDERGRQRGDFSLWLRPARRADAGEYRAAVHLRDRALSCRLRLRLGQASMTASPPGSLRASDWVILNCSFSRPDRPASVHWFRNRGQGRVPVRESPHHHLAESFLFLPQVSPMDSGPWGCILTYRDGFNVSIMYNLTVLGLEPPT

T4: human LAG-3 domain 1-2 Fc fusion, point mutation #26 P79A (human, UniProt P18627 23-266)
T4 construct: not shown: human IgG1 Fc, AA P101-K330
T4 sequence: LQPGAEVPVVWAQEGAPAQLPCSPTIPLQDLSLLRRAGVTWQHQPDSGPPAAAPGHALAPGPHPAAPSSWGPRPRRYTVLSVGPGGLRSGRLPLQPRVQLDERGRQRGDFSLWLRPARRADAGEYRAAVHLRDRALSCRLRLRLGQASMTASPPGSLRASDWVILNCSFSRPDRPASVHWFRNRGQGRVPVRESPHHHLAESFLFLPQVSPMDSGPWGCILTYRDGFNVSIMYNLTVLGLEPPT

T5: human LAG-3 domain 1-2 Fc fusion, point mutation #10 S54A (human, UniProt P18627 23-266)
T5 construct: not shown: human IgG1 Fc, AA P101-K330
T5 sequence: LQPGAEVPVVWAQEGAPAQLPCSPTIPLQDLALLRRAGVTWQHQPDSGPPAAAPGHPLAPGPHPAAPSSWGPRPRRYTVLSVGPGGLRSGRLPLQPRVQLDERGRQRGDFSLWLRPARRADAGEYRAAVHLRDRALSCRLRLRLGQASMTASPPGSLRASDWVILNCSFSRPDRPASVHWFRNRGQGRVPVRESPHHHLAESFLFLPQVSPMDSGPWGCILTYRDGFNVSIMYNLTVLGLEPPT

T6: human LAG-3 domain 1-2 Fc fusion, point mutation #31 P84A (human, UniProt P18627 23-266)
T6 construct: not shown: human IgG1 Fc, AA P101-K330
T6 sequence: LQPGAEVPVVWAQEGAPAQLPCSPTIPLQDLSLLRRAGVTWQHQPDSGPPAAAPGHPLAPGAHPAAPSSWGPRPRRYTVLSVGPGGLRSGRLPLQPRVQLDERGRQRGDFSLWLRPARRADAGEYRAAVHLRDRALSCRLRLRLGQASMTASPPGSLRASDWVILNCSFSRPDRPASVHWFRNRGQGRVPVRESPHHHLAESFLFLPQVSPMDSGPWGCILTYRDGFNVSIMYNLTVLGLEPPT

T7: human LAG-3 domain 1-2 Fc fusion, point mutation #11 L56A (human, UniProt P18627 23-266)
T7 construct: not shown: human IgG1 Fc, AA P101-K330
T7 sequence: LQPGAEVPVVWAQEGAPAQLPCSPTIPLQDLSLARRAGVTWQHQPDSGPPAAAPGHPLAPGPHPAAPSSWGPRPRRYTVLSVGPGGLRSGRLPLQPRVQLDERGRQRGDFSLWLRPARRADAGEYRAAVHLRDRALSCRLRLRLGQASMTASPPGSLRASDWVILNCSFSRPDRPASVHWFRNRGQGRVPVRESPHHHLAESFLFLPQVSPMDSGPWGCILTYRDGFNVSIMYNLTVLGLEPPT

T8: human LAG-3 domain 1-2 Fc fusion, point mutation #42 R95A (human, UniProt P18627 23-266)
T8 construct: not shown: human IgG1 Fc, AA P101-K330
T8 sequence: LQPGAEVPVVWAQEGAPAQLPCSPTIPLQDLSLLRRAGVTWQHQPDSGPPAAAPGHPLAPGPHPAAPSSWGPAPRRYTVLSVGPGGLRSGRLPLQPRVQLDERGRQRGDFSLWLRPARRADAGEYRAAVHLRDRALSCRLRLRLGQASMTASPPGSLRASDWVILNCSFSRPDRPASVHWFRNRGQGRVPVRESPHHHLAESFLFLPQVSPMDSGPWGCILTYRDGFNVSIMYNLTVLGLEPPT

T9: human LAG-3 domain 1-2 Fc fusion, point mutation #45 R98A (human, UniProt P18627 23-266)
T9 construct: not shown: human IgG1 Fc, AA P101-K330
T9 sequence: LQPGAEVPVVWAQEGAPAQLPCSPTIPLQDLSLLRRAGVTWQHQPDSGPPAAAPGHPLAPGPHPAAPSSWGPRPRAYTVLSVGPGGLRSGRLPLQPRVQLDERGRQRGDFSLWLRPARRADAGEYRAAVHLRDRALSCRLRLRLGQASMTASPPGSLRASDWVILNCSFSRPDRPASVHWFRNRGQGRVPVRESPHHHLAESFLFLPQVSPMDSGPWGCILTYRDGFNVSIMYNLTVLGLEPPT


How the values were obtained:
Test in all cases: SPR, Fab over captured mutant LAG-3-Fc;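 note: fc fusion variants captured on anti-human IgG Fc sensor, Fab injected with association then dissociation phases, KD obtained from Langmuir one-to-one fit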
[1] = molecular target: T1, human LAG-3 domain 1-2 Fc fusion, point …
Procedure: (§1) The LAG-3 fusion proteins were immobilized onto a G-a-hu-IgG Fc SensEye® (Ssens BV, The Netherlands) for 15 minutes using a Continuous Flow Microspotter (CFM, Wasatch Microfluidics, Salt Lake City, US). After spotting, the SensEye® was positioned in an IBIS MX96 biosensor and captured proteins were evaluated for binding affinity. […] Fab association was performed for 15 minutes and antigen dissociation was performed for 15 minutes. The recorded binding responses were fitted to a simple Langmuir 1:1 binding model with Scrubber 2 software for calculation of the on-rate (kon or ka), off-rate (koff or kd) and affinity (KD) constants.

[2] = molecular target: T2, human LAG-3 domain 1-2 Fc fusion, point …
Procedure: as §1

[3] = molecular target: T3, human LAG-3 domain 1-2 Fc fusion, point …
Procedure: as §1

[4] = molecular target: T4, human LAG-3 domain 1-2 Fc fusion, point …
Procedure: as §1

[5] = molecular target: T5, human LAG-3 domain 1-2 Fc fusion, point …
Procedure: as §1

[6] = molecular target: T6, human LAG-3 domain 1-2 Fc fusion, point …
Procedure: as §1

[7] = molecular target: T7, human LAG-3 domain 1-2 Fc fusion, point …
Procedure: as §1

[8] = molecular target: T8, human LAG-3 domain 1-2 Fc fusion, point …
Procedure: as §1

[9] = molecular target: T9, human LAG-3 domain 1-2 Fc fusion, point …
Procedure: as §1

| binding result [1] | KD mutant/KD wild type [2] [fold] | KD mutant/KD wild type [3] [fold] | KD mutant/KD wild type [4] [fold] | KD mutant/KD wild type [5] [fold] | KD mutant/KD wild type [6] [fold] | KD mutant/KD wild type [7] [fold] | KD mutant/KD wild type [8] [fold] | KD mutant/KD wild type [9] [fold] | KD mutant/KD wild type [1] [fold] | binding result [3] | binding result [9] | Binder |
| --- | --- | --- | --- | --- | --- | --- | --- | --- | --- | --- | --- | --- |
| no binding (tested: 300 nM) | 1 | 4.2 | 0.9 | 0.7 | 0.5 | 1.2 | 3.7 | 1.6 |  |  |  | Fab fragment of antibody 15532 (Fab, V domains shown, not shown: a dimerising Fc or GST, monomeric Fab made by GingisKHAN digestion of the IgG1) VH: QVQLQQWGAGLLRPSETLSLTCAVYGESFSGYYWNWIRQPPGKGLEWIGEINHSGSTNYNPSLKSRVTISVDTSKTQFSLKLSSVTAADTAVYYCARGWDLLDWNDYWNEYWGQGTLVTVSS VL: EIVLTQSPATLSLSPGERATLSCRASQSVSSYLAWYQQKPGQAPRLLIYDASNRATGIPARFSGSGSGTDFTLTISSLEPEDFAVYYCQQRSNWPLTFGGGTKVEIKR |
|  | 1 |  | 0.4 | 0.5 | 1.1 | 0.3 | 1.9 |  | 1 | no binding (tested: 300 nM) | no binding (tested: 300 nM) | Fab fragment of antibody 15431 (Fab, V domains shown, not shown: a dimerising Fc or GST, monomeric Fab made by GingisKHAN digestion of the IgG1) VH: QVQLQQSGPGLVKPSQTLSLTCAISGDSVSSNSAAWNWIRQSPSRGLEWLGRTYYRSKWYNDYAVSVKSRITINPDTSKNQFSLQLNSVTPEDTAVYYCARDDDWNDFDYWGQGTLVTVSS VL: EIVLTQSPATLSLSPGERATLSCRASQSVSSYLAWYQQKPGQAPRLLIYDASNRATGIPARFSGSGSGTDFTLTISSLEPEDFAVYYCQQRSNWPLTFGGGTKVEIKR |
|  | 0.9 | 0.6 | 0.6 | 0.8 | 1 | 0.7 | 0.7 | 1.2 | 1 |  |  | Fab fragment of antibody 15011 (Fab, V domains shown, not shown: a dimerising Fc or GST, monomeric Fab made by GingisKHAN digestion of the IgG1) VH: EVQLLESGGGLVQPGGSLRLSCAASGFDFRSYAMMWVRQAPGKGLEWVGGINGEVGGSNTYYAPAVKGRATISRDNSKNTLYLQMNSLRAEDTAVYYCVKGAGACGICNDDIDAWGQGTLVTVSS VL: SYELTQDPAVSVALGQTVRITCSGAGSYAGSYYYGWHQQKPGQAPVTVIYDNDKRPSNIPDRFSGSSSGNTASLTITGAQAEDEADYYCGSTNDNDDGGLFGSGTKVTVLG |
|  | 0.8 |  | 0.4 | 0.7 | 0.9 | 0.7 | 0.6 | 0.9 | 0.9 | no binding (tested: 300 nM) |  | Fab fragment of antibody 15572 (Fab, V domains shown, not shown: a dimerising Fc or GST, monomeric Fab made by GingisKHAN digestion of the IgG1) VH: QLQLQESGPGLVKPSETLSLTCTVSGDSISSSSYYWGWIRQPPGKGLEWIGSIFYSGNTYYNPSLKSRVTISVDTSKNQFSLKLSSVTAADTAVYYCAREDDFLTDYYGAFDIWGQGTMVTVSS VL: not shown |
